Results on four molecules are retold here after doi:10.1101/2024.03.15.585150 (bioRxiv, 2024).

Read-outs that look alike come from different tables or passages of the source. No end group written: not given here. *: point of attachment. Biotin = O=C1N[C@H]2[C@H](CS[C@H]2CCCCC(=O)*)N1

Assay [1] deals with T1, KIX domain of CBP coactivator (KIX region 586-672) (UniProt P45481 586-672). The experiment in a line: BLI. Background: BLI is a label-free optical method that tracks binding on a fibre tip over time.
Assay [2] concerns the target T1, KIX domain of CBP coactivator (KIX …). The assay can be described thus: BLI. The source holds these as a separate data set.

A word on the Kd: it is the constant that tells how readily two partners part at equilibrium. Consider Biotin-GSNILPSDIMDFVLKNT [MLL peptide (MLL 9aaTAD), Biotin-GS-NILPSDIMDFVLKNT], for which, in assay [1], binding was characterised by a dissociation constant (Kd) of 1.17 ± 0.21 µM.
In assay [1], Biotin-GSSSEPPSWVTEMLLEN [N-Myc peptide (N-Myc 9aaTAD), Biotin-GSSS-EPPSWVTEMLLEN] had a Kd of 0.88 ± 0.11 µM.
Biotin-GSSSTQLEMVTELLG [c-Myc peptide (c-Myc 9aaTAD), Biotin-GSSS-TQLEMVTELLG] yielded a Kd in assay [1] of 2.16 ± 1.17 µM. This Kd lies about 2.5-fold higher than the previous one.
Biotin-GSSGDVSWDTLDLDDLD [Sp1-Ac peptide (acidic form of Sp1 9aaTAD), Biotin-GSS-GDVSWDTLDLDDLD] gave a Kd in assay [2] of 9.77 ± 1.57 µM.
